In US6074842:

Molecular target: rat perilipin A (62-kDa phosphoprotein of unstimulated rat adipocytes; 65/67-kDa forms after stimulation) (rat)
Settings: scale: ratio to 1

Question: For cAMP-dependent protein kinase (enzyme), which 32P incorporation and shift in SDS-PAGE from 62-kDa to 65/67-kDa in isoproterenol-stimulated rat adipocytes is on record?
Answer: The 32P incorporation and shift in SDS-PAGE from 62-kDa to 65/67-kDa in isoproterenol-stimulated rat adipocytes was 5.
